Paper PMC7954794, “Protein context shapes the specificity of SH3 domain-mediated interactions in vivo” (Nature Communications, 2021)

Tested on: Sla1 PPIs
Assay: DHFR-PCA of Sla1 SH3-swapped, -shuffled or -deleted baits (Fig. 2E, 4B, 4D, S5A)
Assay type: cell-based, Saccharomyces cerevisiae
Source text: The stuffing of YSC84 SH3 rendered the strain sterile and was therefore not used for this study as the assays require crosses. For genes containing two SH3s (BZZ1 and BEM1), a combination of this first stuffer with a second one ([…]) coding for a highly similar linker ([…]) was used, which allowed targeting each SH3 position independently. The two N-terminal domains of SLA1, which are separated by six nucleotides, were stuffed by a single stuffer. Cells containing pCAS were selected via the G418 resistance cassette from the plasmid on YPD plates (YPD + NAT 100 μg/ml (DHFR F[1,2] selection) + G418 200 µg/mL (Bioshop Canada)). Colonies were randomly selected and grown in YPD media without G418 to allow plasmid loss. The correct insertion of the stuffer was validated by PCR and Sanger sequencing. The SH3-swapped, -shuffled, and -mutated strains were constructed following a second CRISPR–Cas9 editing step with the same procedures. The stuffer sequences were targeted by specific gRNAs (one gRNA per stuffer) and replaced by PCR amplified specific SH3 (with 40 bp homology arms) or libraries of mutated SH3 domains for Deep Mutational Scanning (DMS) with 78 bp flanking homology regions. Validation of the SH3 domain insertions was done as we previously described except for DMS libraries (see below).
The overall DHFR-PCA pipeline is based on Tarassov et al.[43] and the procedures have also been published as a visualized protocol. The screens were performed with robotically manipulated pin tools (BM5-SC1, S&P Robotics Inc.). First, the preys were cherry-picked from 96-well plates to omnitrays in a 384 format on YPD + HPH solid media. Plates were then combined into the 1536 format on YPD + HPH. The array was constituted of 575 preys previously shown to interact physically with at least one SH3-containing protein as reported in BioGRID V3.4.16 along with 40 negative controls. The prey array comprised a border of control strains of two rows and two columns corresponding to the PPI between LSM8-DHFR F[1,2] and CDC39-DHFR F[3]. This double border was used to remove border effects. Preys are present in duplicate at a randomized position in the 1536 array (except for YAL041W which is present four times per array). Baits were crossed with two prey plates, resulting in four independent bait–prey tests for each PPI. Baits were grown in liquid YPD + NAT and then transferred on solid YPD + NAT omnitrays. They were then replicated on YPD + NAT omnitrays in 1536 array format. Mating of DHFR F[1,2] baits with DHFR F[3] preys was done on YPD followed by incubation at 30 °C for 48 h. Two diploid selection steps were performed by replicating the plates on YPD + NAT + HPH and incubating them for 48 h at 30 °C. Pictures were taken at the end of the second diploid selection for quality control. All images were acquired with a EOS Rebel T5i camera (Canon). Finally, the diploid cells were replicated on omnitrays containing solid PCA selection media and incubated for 4 days as a first selection step in a spImager custom robotic platform (S&P Robotics Inc.). Cells were replicated for a second PCA selection step and incubated in the same manner. The last time point of the second PCA selection step was used for the data analysis as in previous studies using this method.
A separate DHFR-PCA screen was performed for the Sla1 SH3 shuffling experiment, with the same analysis as previously described. Three plates had no detectable level of background, which correspond to the second plate of the three Sla1 SH3 WT re-insertion controls. They were attributed the average of the background of the three first plates of the same baits. The threshold was also determined based on the distribution of the PCA scores of all PPIs and corresponds to the top 2.75% of all colonies detected in this experiment. […] Almost all true PPIs are from four replicates (96.2%). […]

B1: SLA1 WT¦WT¦WT (protein, UniProt P32790 1-1244, looked up)
Actin cytoskeleton-regulatory …: MTVFLGIYRAVYAYEPQTPEELAIQEDDLLYLLQKSDIDDWWTVKKRVIGSDSEEPVGLVPSTYIEEAPVLKKVRAIYDYEQVQNADEELTFHENDVFDVFDDKDADWLLVKSTVSNEFGFIPGNYVEPENGSTSKQEQAPAAAEAPAATPAAAPASAAVLPTNFLPPPQHNDRARMMQSKEDQAPDEDEEGPPPAMPARPTATTETTDATAAAVRSRTRLSYSDNDNDDEEDDYYYNSNSNNVGNHEYNTEYHSWNVTEIEGRKKKKAKLSIGNNKINFIPQKGTPHEWSIDKLVSYDNEKKHMFLEFVDPYRSLELHTGNTTTCEEIMNIIGEYKGASRDPGLREVEMASKSKKRGIVQYDFMAESQDELTIKSGDKVYILDDKKSKDWWMCQLVDSGKSGLVPAQFIEPVRDKKHTESTASGIIKSIKKNFTKSPSRSRSRSRSKSNANASWKDDELQNDVVGSAAGKRSRKSSLSSHKKNSSATKDFPNPKKSRLWVDRSGTFKVDAEFIGCAKGKIHLHKANGVKIAVAADKLSNEDLAYVEKITGFSLEKFKANDGSSSRGTDSRDSERERRRRLKEQEEKERDRRLKERELYELKKARELLDEERSRLQEKELPPIKPPRPTSTTSVPNTTSVPPAESSNNNNSSNKYDWFEFFLNCGVDVSNCQRYTINFDREQLTEDMMPDINNSMLRTLGLREGDIVRVMKHLDKKFGRENIASIPTNATGNMFSQPDGSLNVATSPETSLPQQLLPQTTSPAQTAPSTSAETDDAWTVKPASKSESNLLSKKSEFTGSMQDLLDLQPLEPKKAAASTPEPNLKDLEPVKTGGTTVPAAPVSSAPVSSAPAPLDPFKTGGNNILPLSTGFVMMPMITGGDMLPMQRTGGFVVPQTTFGMQSQVTGGILPVQKTGNGLIPISNTGGAMMPQTTFGAAATVLPLQKTGGGLIPIATTGGAQFPQTSFNVQGQQQLPTGSILPVQKTANGLISANTGVSMPTVQRTGGTMIPQTSFGVSQQLTGGAMMTQPQNTGSAMMPQTSFNAVPQITGGAMMPQTSFNALPQVTGGAMMPLQRTGGALNTFNTGGAMIPQTSFSSQAQNTGGFRPQSQFGLTLQKTGGIAPLNQNQFTGGAMNTLSTGGVLQQQQPQTMNTFNTGGVMQELQMMTTFNTGGAMQQPQMMNTFNTDGIMQQPQMMNTFNTGGAMQQPQQQALQNQPTGFGFGNGPQQSRQANIFNATASNPFGF
medrep = log2 median colony size normalized to plate background (PCA score) (prey YAL005C, 4 replicates): 4.576
medrep = log2 median colony size normalized to plate background (PCA score) (prey YAL005C, 4 replicates, listed as SLA1 WT¦WT¦WT*): 5.708
medrep = log2 median colony size normalized to plate background (PCA score) (prey YBL007C, 4 replicates): 3.858
medrep = log2 median colony size normalized to plate background (PCA score) (prey YBL007C, 4 replicates, listed as SLA1 WT¦WT¦WT*): 4.787
medrep = log2 median colony size normalized to plate background (PCA score) (prey YBR234C, 4 replicates): 4.193
medrep = log2 median colony size normalized to plate background (PCA score) (prey YBR234C, 4 replicates, listed as SLA1 WT¦WT¦WT*): 5.208
medrep = log2 median colony size normalized to plate background (PCA score) (prey YCR009C, 2 replicates): 2.175
medrep = log2 median colony size normalized to plate background (PCA score) (prey YCR030C, 4 replicates): 2.158
medrep = log2 median colony size normalized to plate background (PCA score) (prey YCR088W, 4 replicates): 3.971
medrep = log2 median colony size normalized to plate background (PCA score) (prey YCR088W, 4 replicates, listed as SLA1 WT¦WT¦WT*): 4.931
medrep = log2 median colony size normalized to plate background (PCA score) (prey YDL229W, 4 replicates): 4.158
medrep = log2 median colony size normalized to plate background (PCA score) (prey YDL229W, 4 replicates, listed as SLA1 WT¦WT¦WT*): 5.378
medrep = log2 median colony size normalized to plate background (PCA score) (prey YDR129C, 4 replicates): 3.756
medrep = log2 median colony size normalized to plate background (PCA score) (prey YDR129C, 4 replicates, listed as SLA1 WT¦WT¦WT*): 4.737
medrep = log2 median colony size normalized to plate background (PCA score) (prey YFL010C, 2 replicates): 3.147
medrep = log2 median colony size normalized to plate background (PCA score) (prey YFR024C-A, 4 replicates): 3.943
medrep = log2 median colony size normalized to plate background (PCA score) (prey YFR024C-A, 4 replicates, listed as SLA1 WT¦WT¦WT*): 4.815
medrep = log2 median colony size normalized to plate background (PCA score) (prey YGL206C, 4 replicates): 3.77
medrep = log2 median colony size normalized to plate background (PCA score) (prey YGL206C, 4 replicates, listed as SLA1 WT¦WT¦WT*): 4.526
medrep = log2 median colony size normalized to plate background (PCA score) (prey YGR229C, 4 replicates): 2.045
medrep = log2 median colony size normalized to plate background (PCA score) (prey YHR016C, 4 replicates): 3.008
medrep = log2 median colony size normalized to plate background (PCA score) (prey YHR016C, 4 replicates, listed as SLA1 WT¦WT¦WT*): 3.247
medrep = log2 median colony size normalized to plate background (PCA score) (prey YHR064C, 4 replicates): 3.59
medrep = log2 median colony size normalized to plate background (PCA score) (prey YHR064C, 4 replicates, listed as SLA1 WT¦WT¦WT*): 4.449
medrep = log2 median colony size normalized to plate background (PCA score) (prey YIL062C, 4 replicates): 3.558
medrep = log2 median colony size normalized to plate background (PCA score) (prey YIL062C, 4 replicates, listed as SLA1 WT¦WT¦WT*): 4.388
medrep = log2 median colony size normalized to plate background (PCA score) (prey YIR006C, 4 replicates): 3.754
medrep = log2 median colony size normalized to plate background (PCA score) (prey YIR006C, 4 replicates, listed as SLA1 WT¦WT¦WT*): 4.634
medrep = log2 median colony size normalized to plate background (PCA score) (prey YKL013C, 4 replicates): 3.269
medrep = log2 median colony size normalized to plate background (PCA score) (prey YKL013C, 4 replicates, listed as SLA1 WT¦WT¦WT*): 3.776
medrep = log2 median colony size normalized to plate background (PCA score) (prey YKL054C, 4 replicates): 2.47
medrep = log2 median colony size normalized to plate background (PCA score) (prey YKL054C, 4 replicates, listed as SLA1 WT¦WT¦WT*): 3.124
medrep = log2 median colony size normalized to plate background (PCA score) (prey YKL117W, 4 replicates): 3.846
medrep = log2 median colony size normalized to plate background (PCA score) (prey YKL117W, 4 replicates, listed as SLA1 WT¦WT¦WT*): 4.725
medrep = log2 median colony size normalized to plate background (PCA score) (prey YKL129C, 4 replicates): 2.117
medrep = log2 median colony size normalized to plate background (PCA score) (prey YLR337C, 4 replicates): 3.738
medrep = log2 median colony size normalized to plate background (PCA score) (prey YLR337C, 4 replicates, listed as SLA1 WT¦WT¦WT*): 4.734
medrep = log2 median colony size normalized to plate background (PCA score) (prey YLR370C, 4 replicates): 3.494
medrep = log2 median colony size normalized to plate background (PCA score) (prey YLR370C, 4 replicates, listed as SLA1 WT¦WT¦WT*): 4.461
medrep = log2 median colony size normalized to plate background (PCA score) (prey YMR109W, 4 replicates): 2.836
medrep = log2 median colony size normalized to plate background (PCA score) (prey YMR109W, 4 replicates, listed as SLA1 WT¦WT¦WT*): 3.116
medrep = log2 median colony size normalized to plate background (PCA score) (prey YNL084C, 4 replicates): 3.76
medrep = log2 median colony size normalized to plate background (PCA score) (prey YNL084C, 4 replicates, listed as SLA1 WT¦WT¦WT*): 4.641
medrep = log2 median colony size normalized to plate background (PCA score) (prey YNL138W, 4 replicates): 2.038
medrep = log2 median colony size normalized to plate background (PCA score) (prey YNL243W, 4 replicates): 3.418
medrep = log2 median colony size normalized to plate background (PCA score) (prey YNL243W, 4 replicates, listed as SLA1 WT¦WT¦WT*): 4.392
medrep = log2 median colony size normalized to plate background (PCA score) (prey YOR181W, 4 replicates): 3.933
medrep = log2 median colony size normalized to plate background (PCA score) (prey YOR181W, 4 replicates, listed as SLA1 WT¦WT¦WT*): 4.903
